Experimental data reported in the supplement of paper PMC7125110.
± gives the standard error. For part of these data: Variants at the floor of the assay were thinned out.

B1: glmS ribozyme (parent)
chain: AUAAAAGCGCCAGAACUACAGAAAUGUAGUUGACGAGGAGGAGGUUUAUCGAAUUUUCGGCGGAUGCCUCCAAA

Legend:
Settings in all cases: with glucosamine-6-phosphate
[1] = variants of: B1; test: kcat; higher = faster cleavage; RNA array
Summary of the method: (§1)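 Barcoded ribozyme variants, transcribed in situ by E. coli RNA polymerase on sequenced MiSeq chips, were followed via a hybridised Cy3 probe at 37 °C. Glucosamine-6-phosphate ranged from 40 μM to 10 mM in HEPES/KCl/Mg(OAc)2 buffer. kobs came from decay fits to per-tile medians, and kcat and KM from weighted Michaelis–Menten fits.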

[2] = variants of: B1; test: KM; higher = weaker cofactor use; RNA array
Summary of the method: as §1

[3] = variants of: B1; test: self-cleavage kobs at 160 uM GlcN6P; higher = faster cleavage; RNA array
Summary of the method: as §1

[4] = variants of: B1; test: self-cleavage kobs at 10000 uM GlcN6P; higher = faster cleavage; RNA array
Summary of the method: as §1

[5] = variants of: B1; test: self-cleavage kobs at 40 uM GlcN6P; higher = faster cleavage; RNA array
Summary of the method: as §1

[6] = variants of: B1; test: self-cleavage kobs at 640 uM GlcN6P; higher = faster cleavage; RNA array
Summary of the method: as §1

[7] = variants of: B1; test: self-cleavage kobs at 2500 uM GlcN6P; higher = faster cleavage; RNA array
Summary of the method: as §1

Variant | kcat [1] [s⁻¹] | KM [2] [µM] | self-cleavage kobs at 160 uM GlcN6P [3] [s⁻¹] | self-cleavage kobs at 10000 uM GlcN6P [4] [s⁻¹] | self-cleavage kobs at 40 uM GlcN6P [5] [s⁻¹] | self-cleavage kobs at 640 uM GlcN6P [6] [s⁻¹] | self-cleavage kobs at 2500 uM GlcN6P [7] [s⁻¹]
A6U U56C | 3.09e-05 ± 1.4e-06 | 4670 ± 590 | < 1e-05 | 2.11e-05 ± 7.5e-06 |  |  | 
A39U G66C | 0.0109 ± 0.0036 | 6420 ± 2800 | 0.00046 ± 0.00012 | 0.0065 ± 0.001 | 5.39e-05 ± 1.3e-05 | 0.00112 ± 0.00026 | 0.00343 ± 0.00096
G59U G62U C67G | < 1e-05 |  | < 1e-05 |  |  |  | 
C11A C70A | 2.97e-05 ± 1.1e-05 |  |  |  |  | 4.96e-05 ± 1.9e-05 | 
U30A U69A | 5.09e-05 ± 2.2e-05 |  | 5.73e-05 ± 2.4e-05 | 3.22e-05 ± 1.1e-05 |  |  | 9.65e-05 ± 1.8e-05
C50U G63C | < 1e-05 |  |  | < 1e-05 |  |  | 
A52U U54A | 0.000204 ± 9.2e-06 | 1670 ± 180 |  | 0.000172 ± 1.8e-05 |  | 5.55e-05 ± 8.3e-06 | 0.000132 ± 2.1e-05
G41C A53G | 0.000359 ± 9.5e-05 |  | 5.35e-05 ± 1.4e-05 | 0.000438 ± 7.1e-05 |  | 0.000157 ± 3.2e-05 | 0.000193 ± 4.2e-05
A14G G66U | 0.00542 ± 0.00096 | 2220 ± 560 | 0.00039 ± 4e-05 | 0.00464 ± 0.0004 | 0.000114 ± 1.2e-05 | 0.00094 ± 0.00012 | 0.00287 ± 0.00033
A53U C58G | 9.99e-05 ± 7.2e-06 | 1390 ± 370 |  | 8.57e-05 ± 8e-06 |  | 2.6e-05 ± 9.5e-06 | 7.16e-05 ± 1e-05
U46A U56C | 0.0005 ± 4.2e-05 | 1350 ± 250 |  | 0.000424 ± 8.3e-05 |  | 0.000158 ± 3.2e-05 | 0.000362 ± 8.4e-05
A39U U49G | 0.00055 ± 0.00012 |  |  | 0.000461 ± 7.3e-05 |  | 0.000168 ± 5.1e-05 | 0.000231 ± 6.6e-05
U31G G41A | 0.000638 ± 6.8e-05 | 1220 ± 220 | 7.06e-05 ± 1.2e-05 | 0.000506 ± 9.5e-05 |  | 0.000224 ± 2.5e-05 | 0.000482 ± 6.9e-05
A53U C68G | 7.87e-05 ± 9.6e-06 |  | 8.2e-05 ± 1.4e-05 | 7.67e-05 ± 7.9e-06 |  | 6.63e-05 ± 1.1e-05 | 7.65e-05 ± 1.4e-05
C61U C71G | < 1e-05 |  | < 1e-05 |  |  |  | 
G32A U45A | 0.00555 ± 0.00055 | 2580 ± 370 | 0.000267 ± 6.7e-05 | 0.00438 ± 0.00057 | 9.16e-05 ± 1.5e-05 | 0.00117 ± 0.00024 | 0.003 ± 0.001
